Source: publication PMC12170185

Key:
Assay in all cases: fluorescence anisotropy
Conditions in all cases: FA: 25 mM HEPES pH 7.45, 150 mM NaCl, 5% glycerol, 10 nM probe, temperature not stated, EMSA: 250 nM probe in 25 mM HEPES pH 7.45, 100 mM NaCl
UPF2 MIF4G-D3 = UPF2 MIF4G-D3 (UniProt Q9HAU5)
UPF2L = UPF2L (UniProt Q9HAU5)
UPF2 MIF4G-D1 = UPF2 MIF4G-D1 (UniProt Q9HAU5)
UPF2 MIF4G-D1-2 = UPF2 MIF4G-D1-2 (UniProt Q9HAU5)
UPF2 MIF4G-D2 = UPF2 MIF4G-D2 (UniProt Q9HAU5)
UPF2 MIF4G-D2-3 = UPF2 MIF4G-D2-3 (UniProt Q9HAU5)
UPF2 MIF4G-D2-3, sequence (Q9HAU5 455-1054): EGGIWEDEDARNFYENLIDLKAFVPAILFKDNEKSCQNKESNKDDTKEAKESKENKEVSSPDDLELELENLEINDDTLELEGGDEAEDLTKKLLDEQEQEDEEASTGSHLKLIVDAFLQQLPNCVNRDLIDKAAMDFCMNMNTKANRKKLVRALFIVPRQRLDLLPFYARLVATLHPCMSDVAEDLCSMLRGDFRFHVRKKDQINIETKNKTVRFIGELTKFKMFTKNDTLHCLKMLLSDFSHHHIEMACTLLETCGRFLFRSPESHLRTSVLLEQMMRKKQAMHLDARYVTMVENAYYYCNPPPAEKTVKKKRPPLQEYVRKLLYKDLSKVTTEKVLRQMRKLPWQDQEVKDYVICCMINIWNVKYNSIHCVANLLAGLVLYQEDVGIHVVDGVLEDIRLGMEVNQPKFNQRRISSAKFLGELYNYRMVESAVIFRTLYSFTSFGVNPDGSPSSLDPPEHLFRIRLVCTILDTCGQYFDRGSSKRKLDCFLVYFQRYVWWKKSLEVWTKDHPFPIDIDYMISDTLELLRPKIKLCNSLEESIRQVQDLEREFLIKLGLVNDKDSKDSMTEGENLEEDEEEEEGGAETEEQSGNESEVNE

UPF2L, sequence (Q9HAU5 121-1227): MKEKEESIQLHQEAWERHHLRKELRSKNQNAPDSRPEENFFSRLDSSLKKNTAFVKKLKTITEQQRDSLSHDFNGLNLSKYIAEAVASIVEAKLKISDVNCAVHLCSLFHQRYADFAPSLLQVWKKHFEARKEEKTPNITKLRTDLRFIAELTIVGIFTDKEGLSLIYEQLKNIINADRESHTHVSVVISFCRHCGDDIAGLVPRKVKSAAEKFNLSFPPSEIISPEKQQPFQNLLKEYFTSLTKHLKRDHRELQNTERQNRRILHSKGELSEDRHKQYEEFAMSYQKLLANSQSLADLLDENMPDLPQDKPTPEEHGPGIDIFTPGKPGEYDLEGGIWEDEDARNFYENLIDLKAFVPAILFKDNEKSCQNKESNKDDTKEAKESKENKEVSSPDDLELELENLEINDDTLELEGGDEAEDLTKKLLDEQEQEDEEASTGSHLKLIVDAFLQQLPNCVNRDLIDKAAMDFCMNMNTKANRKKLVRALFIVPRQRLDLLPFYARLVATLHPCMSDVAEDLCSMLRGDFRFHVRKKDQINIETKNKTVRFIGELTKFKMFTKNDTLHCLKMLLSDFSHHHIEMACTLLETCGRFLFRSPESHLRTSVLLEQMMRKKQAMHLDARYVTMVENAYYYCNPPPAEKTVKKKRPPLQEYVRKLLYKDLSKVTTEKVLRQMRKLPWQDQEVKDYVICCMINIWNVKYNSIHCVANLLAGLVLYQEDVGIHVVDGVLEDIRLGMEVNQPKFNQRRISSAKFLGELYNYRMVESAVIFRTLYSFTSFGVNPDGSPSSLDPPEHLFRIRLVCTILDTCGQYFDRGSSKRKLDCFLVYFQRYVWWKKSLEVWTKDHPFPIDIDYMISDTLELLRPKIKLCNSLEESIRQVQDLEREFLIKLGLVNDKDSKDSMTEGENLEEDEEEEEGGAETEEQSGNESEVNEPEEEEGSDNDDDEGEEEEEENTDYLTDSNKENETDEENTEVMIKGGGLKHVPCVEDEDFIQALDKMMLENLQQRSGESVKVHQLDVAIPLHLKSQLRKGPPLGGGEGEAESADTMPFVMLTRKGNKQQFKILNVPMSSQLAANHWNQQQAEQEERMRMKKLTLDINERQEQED
UPF2 MIF4G-D3, sequence (Q9HAU5 761-1054): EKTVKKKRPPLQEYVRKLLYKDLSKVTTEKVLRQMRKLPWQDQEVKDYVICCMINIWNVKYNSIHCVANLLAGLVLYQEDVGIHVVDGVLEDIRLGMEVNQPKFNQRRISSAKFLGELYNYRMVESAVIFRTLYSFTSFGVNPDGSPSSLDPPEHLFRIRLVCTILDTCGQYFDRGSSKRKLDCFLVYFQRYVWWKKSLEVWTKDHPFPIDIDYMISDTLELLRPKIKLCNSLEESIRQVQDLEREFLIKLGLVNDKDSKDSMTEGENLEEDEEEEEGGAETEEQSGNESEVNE
UPF2 MIF4G-D1-2, sequence (Q9HAU5 120-757): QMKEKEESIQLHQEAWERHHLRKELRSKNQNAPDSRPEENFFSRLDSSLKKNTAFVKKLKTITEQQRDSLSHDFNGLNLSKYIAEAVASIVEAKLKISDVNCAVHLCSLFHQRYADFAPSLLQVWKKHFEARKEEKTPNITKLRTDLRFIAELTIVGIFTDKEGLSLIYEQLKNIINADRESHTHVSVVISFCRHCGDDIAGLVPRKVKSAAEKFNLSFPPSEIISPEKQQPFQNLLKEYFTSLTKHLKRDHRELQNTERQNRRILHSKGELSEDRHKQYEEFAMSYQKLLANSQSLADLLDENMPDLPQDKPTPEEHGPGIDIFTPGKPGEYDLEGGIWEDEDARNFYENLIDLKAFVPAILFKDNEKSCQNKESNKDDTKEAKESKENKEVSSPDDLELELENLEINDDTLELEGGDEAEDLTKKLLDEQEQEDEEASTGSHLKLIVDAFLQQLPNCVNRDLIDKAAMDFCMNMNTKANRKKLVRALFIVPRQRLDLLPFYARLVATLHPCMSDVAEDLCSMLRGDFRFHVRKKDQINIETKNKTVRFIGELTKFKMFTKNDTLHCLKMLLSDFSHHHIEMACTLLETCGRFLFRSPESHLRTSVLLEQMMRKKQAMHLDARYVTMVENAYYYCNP
UPF2 MIF4G-D1, sequence (Q9HAU5 120-486): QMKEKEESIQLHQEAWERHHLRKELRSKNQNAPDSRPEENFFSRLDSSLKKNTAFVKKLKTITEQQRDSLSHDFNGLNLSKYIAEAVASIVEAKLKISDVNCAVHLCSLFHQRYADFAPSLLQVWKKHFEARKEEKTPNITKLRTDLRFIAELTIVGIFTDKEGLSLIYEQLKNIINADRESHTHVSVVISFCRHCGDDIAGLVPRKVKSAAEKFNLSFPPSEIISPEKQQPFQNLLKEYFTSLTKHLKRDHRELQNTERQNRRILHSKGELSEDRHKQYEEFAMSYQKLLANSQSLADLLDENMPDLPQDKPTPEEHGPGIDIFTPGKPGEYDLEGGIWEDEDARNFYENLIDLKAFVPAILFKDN
UPF2 MIF4G-D2, sequence (Q9HAU5 455-757): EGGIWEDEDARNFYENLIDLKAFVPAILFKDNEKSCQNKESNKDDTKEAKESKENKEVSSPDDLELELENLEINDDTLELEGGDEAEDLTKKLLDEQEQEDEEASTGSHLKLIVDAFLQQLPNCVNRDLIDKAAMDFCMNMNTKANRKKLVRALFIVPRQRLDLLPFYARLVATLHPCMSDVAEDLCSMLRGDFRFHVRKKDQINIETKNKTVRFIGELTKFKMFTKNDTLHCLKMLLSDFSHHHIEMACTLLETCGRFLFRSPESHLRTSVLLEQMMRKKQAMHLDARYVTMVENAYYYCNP

Substance	Kd (UPF2 MIF4G-D3) [nM]	Kd (UPF2L) [nM]	Kd (UPF2 MIF4G-D1) [nM]	Kd (UPF2 MIF4G-D1-2) [nM]	Kd (UPF2 MIF4G-D2) [µM]	Kd (UPF2 MIF4G-D2-3) [nM]
13 nt PUR ss-RNA	1280	683				
13 nt PYR ss-RNA	529	650				
24 nt ds-DNA		334				
24 nt ds-RNA		454				
24 nt ss-DNA		431				
24 nt ss-RNA	694	135	1400	784	3.5	530
